Assay [1] addresses T1, human ALPPL2 (recombinant protein) (human, UniProt P10696 20-503).
T1 chain: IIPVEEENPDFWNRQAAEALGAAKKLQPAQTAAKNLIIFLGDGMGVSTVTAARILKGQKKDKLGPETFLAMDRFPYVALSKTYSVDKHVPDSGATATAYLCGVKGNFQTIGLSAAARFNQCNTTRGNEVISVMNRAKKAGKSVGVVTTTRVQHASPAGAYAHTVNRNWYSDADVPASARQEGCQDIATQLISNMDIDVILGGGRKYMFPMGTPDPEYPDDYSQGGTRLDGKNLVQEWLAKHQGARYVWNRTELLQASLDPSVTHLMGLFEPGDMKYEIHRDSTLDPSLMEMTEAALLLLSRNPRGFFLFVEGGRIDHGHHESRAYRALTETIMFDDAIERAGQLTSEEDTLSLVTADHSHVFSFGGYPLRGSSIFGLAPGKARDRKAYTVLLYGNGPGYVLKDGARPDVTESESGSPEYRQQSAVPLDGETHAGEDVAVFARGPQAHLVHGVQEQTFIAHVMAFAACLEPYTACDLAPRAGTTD
The experiment in a line: BLI; single concentration. A general note: BLI is a label-free optical method that tracks binding on a fibre tip over time.

For assay [2], the target named is T2, human ALPPL2 expressed on cells (human, UniProt P10696 20-503).
T2 construct: whole, on cells; also called placental-like alkaline phosphatase
The experiment in a line: FACS (FIG. 12A).

Assay [3] deals with T3, human ALPP expressed on cells (human, UniProt P05187 23-506).
T3 construct: whole, on cells
The experiment in a line: FACS (FIG. 12A).

For assay [4], the target named is T4, human ALPPL2 (recombinant protein) (human, UniProt P10696 20-503, limits assumed).
T4 construct: biotinylated where captured on streptavidin
The experiment in a line: screen of rabbit B-cell clones by ELISA and FACS. The text has this:
(§1) Specific clones were screened and identified by ELISA and high throughput flow cytometry (FIG. 3). Rabbit kidney cells were transfected with either truncated (for ELISA screen) or full-length (for FACS screen) ALPI and ALPPL2.

The target in assay [5] is T5, ALPI (screening and SPR/ELISA protein) (UniProt P09923 20-503, limits assumed).
T5 sequence (looked up): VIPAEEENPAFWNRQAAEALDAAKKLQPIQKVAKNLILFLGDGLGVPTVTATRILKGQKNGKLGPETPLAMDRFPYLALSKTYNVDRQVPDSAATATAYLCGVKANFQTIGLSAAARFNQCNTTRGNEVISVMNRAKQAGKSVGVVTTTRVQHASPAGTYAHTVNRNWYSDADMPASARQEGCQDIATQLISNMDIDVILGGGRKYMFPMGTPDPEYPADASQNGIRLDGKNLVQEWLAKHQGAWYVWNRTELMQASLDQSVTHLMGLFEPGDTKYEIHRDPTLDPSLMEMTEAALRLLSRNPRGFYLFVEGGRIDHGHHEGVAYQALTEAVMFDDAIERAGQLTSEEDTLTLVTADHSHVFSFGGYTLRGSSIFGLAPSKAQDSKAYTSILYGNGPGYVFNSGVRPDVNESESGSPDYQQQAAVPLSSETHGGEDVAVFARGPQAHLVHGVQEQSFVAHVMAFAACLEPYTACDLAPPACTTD
The experiment in a line: screen of rabbit B-cell clones by ELISA and FACS.
Source text: as §1
In general terms: In an ELISA, binding on a coated surface is turned into a signal by an enzyme label.

Assay [6] has as its target T2, human ALPPL2 expressed on cells. The experiment in a line: FACS (FIG. 13).
In assay [7] the target is T3, human ALPP expressed on cells. The experiment in a line: FACS (FIG. 13).
The target in assay [8] is T4, human ALPPL2 (recombinant protein). The experiment in a line: SPR, Biacore T200, ligand captured by streptavidin on CM5 chip, antibody as analyte. The method, then:
(§2) Select clones (C4, C15, C131, C12, C18, C36 and C53) were humanized by grafting the CDRs to a human IgG1 framework. […] Surface plasmon resonance was studied using Biacore T200. Ligands (e.g. ALPPL2 or ALPP) were immobilized on biosensors CM5 chips captured with the streptavidin. Ligands-loaded sensors were then incubated with different concentrations of analyte (recombinant expressed humanized antibody clones) to measure affinity.
In general terms: In SPR one partner is held on a chip, and binding of the other changes the refractive index at the surface.

The target of assay [9] is T6, human ALPP (recombinant protein) (human, UniProt P05187 23-506, limits assumed). Described as above. The method, then:
as §2

Assay [10] concerns the target T1, human ALPPL2 (recombinant protein). The experiment in a line: BLI.
The target in assay [11] is T7, human ALPP (recombinant protein) (human, UniProt P05187 23-506).
T7 chain: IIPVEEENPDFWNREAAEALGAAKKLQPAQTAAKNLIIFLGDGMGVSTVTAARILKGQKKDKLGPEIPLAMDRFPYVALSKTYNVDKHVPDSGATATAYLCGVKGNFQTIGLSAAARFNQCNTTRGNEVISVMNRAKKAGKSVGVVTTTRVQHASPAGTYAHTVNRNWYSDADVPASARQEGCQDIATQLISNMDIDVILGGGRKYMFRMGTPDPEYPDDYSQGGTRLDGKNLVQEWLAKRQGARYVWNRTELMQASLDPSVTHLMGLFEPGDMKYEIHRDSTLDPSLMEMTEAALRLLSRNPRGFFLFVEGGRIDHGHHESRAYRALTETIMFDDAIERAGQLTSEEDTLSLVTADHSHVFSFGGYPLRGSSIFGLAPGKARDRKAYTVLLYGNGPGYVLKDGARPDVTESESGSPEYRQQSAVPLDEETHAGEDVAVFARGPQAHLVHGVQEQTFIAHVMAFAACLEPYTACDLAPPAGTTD
The experiment in a line: BLI.

Assay [12] addresses T8, human ALPI expressed on cells (human, UniProt P09923 20-503).
T8 construct: whole, on cells
T8 sequence (looked up): T5 sequence (looked up)
The experiment in a line: FACS on transiently transfected 293T cells (FIG. 13A).

Assay [13] deals with T9, human ALPL expressed on cells (human, UniProt P05186 18-501).
T9 construct: whole, on cells
T9 sequence (looked up): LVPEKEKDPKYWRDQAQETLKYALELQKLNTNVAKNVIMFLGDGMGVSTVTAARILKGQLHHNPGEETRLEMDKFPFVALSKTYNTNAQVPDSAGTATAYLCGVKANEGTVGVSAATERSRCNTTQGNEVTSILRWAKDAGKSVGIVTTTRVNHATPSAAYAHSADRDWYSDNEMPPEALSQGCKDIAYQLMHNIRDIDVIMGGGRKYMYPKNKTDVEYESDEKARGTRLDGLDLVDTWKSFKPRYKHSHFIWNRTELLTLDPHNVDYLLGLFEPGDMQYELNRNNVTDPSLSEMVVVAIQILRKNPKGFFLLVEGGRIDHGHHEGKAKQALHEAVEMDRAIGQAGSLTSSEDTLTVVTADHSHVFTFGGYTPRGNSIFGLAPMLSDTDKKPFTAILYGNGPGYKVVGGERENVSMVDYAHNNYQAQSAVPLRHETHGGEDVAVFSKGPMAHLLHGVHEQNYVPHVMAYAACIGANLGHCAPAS
Described as above.

Assay [14] deals with T6, human ALPP (recombinant protein). The experiment in a line: biolayer interferometry, biotinylated ligand on SA biosensors (FIG. 12G). How it is done: Chimerized C53 is also cross-reactive towards rhesus macaque ortholog. Binding affinity of humanized C53 as compared to humanized C36 to ALPPL and ALPP was performed using Biolayer Interferometry. In this technique, biotinylated ligands (i.e. ALPPL2 or ALPP) were immobilized on SA biosensors. Ligands-loaded sensors were then incubated with different concentrations of analyte (recombinantly expressed humanized antibody clones) in the buffer.

Assay [15] has as its target T3, human ALPP expressed on cells. The experiment in a line: FACS on transiently transfected 293T cells (FIG. 13A).

B1: AB1C4 (antibody, V domains shown)
VH: QSLEESGGDLVKPGPSLTLTCKASGFTISNNYWICWVRQAPGKGLEWIGCIATGDGSTYYASWAKGRFTISKTSSTTVTLQMTSLTAADTATYFCARGAAGSSWTTYFDFWGPGTPVTVSS
VL: DIVMTQTPASVEAAVGGTVTIKCQAGQNIDNYLSWYQQKPGQPPKLLIYRASTLASGVPSRFKGSGSGTEFTLTISDLECADAATYYCQNNNGGSTFTGFPFGGGTEVVVK
notes: Rabbit antibody cloned from a single B cell; also called rabbit C4
In general, Kd refers to the concentration at which binding is half-saturated. On to B1, for which the Kd in [1] was 1 pM. In addition, the binding result in assay [2] is “binds”; in assay [3], “binds”; in [4] it was “binds”; in assay [5] it was “no binding”.

B2: humanized C36 (antibody, human IgG1, V domains shown)
VH: EVQLVESGGGLVQPGGSLRLSCAASGFSFSSGYNICWVRQAPGKGLELIACIYTSSSGSTYYASWAKGRFTISRDNSKNTLYLQMNSLRAEDTAVYYCARGEAYYAYGYVGYAYYHGAFDPWGQGTLVTVSS
VL: DIQMTQSPSSLSASVGDRVTITCQASHSISKYFSWYQQKPGKVPKLLIYEASTLASGVPSRFSGSGSGTDFTLTISSLQPEDVATYYCQSYYYGTSSSYAFGQGTKVEIK
notes: CDRs grafted to a human IgG1 framework; recombinant; also called hC36
Turning to B2, the binding result in [6] was “binds”; in [7] it was “binds”; in assay [8] it was “binds”; in assay [9] it was “binds”; in assay [12] it was “no binding”; in assay [13], “no binding”. Moreover, the Kd came out at 300 pM in assay [10] and 200 pM in [11].

B3: humanized C53 (antibody, human IgG1, V domains shown)
VH: EVQLVESGGGLVQPGGSLRLSCAASGFSFSSGYDMCWVRQAPGKGLEWIACIHSSSGTTYYASWAKGRFTISRDNSKNTLYLQMNSLRAEDTAVYYCARDFSYTDDYISYVYATDLWGQGTLVTVSS
VL: DIQMTQSPSSLSASVGDRVTITCQASQSIGSSLAWYQQKPGKVPKLLIYAASYLASGVPSRFSGSGSGTDFTLTISSLQPEDVATYYCQSTYYSSSTDIRAFGQGTKVEIK
notes: CDRs grafted to a human IgG1 framework; recombinant; also called hC53
With B3, the binding result in [6] is on record as “binds”; in assay [14], “no binding”; in assay [8] it was “binds”; in assay [12] it was “no binding”; in [15], “no binding”; in [13], “no binding”. For the same molecule, in [10], the Kd was 1000 pM.

The values are drawn from patent publication US20230080224A1 (AGENCY FOR SCIENCE TECHNOLOGY AND RESEARCH, published 2023).
